Data as given in patent US7807387B2, “Biological agent that causes IL-6 receptor release” (Meyer Pharmaceuticals LLC, priority 2003, dated 2010).

Tests used:
[1] = tested on: experimentally induced Asthma; assay: Experimentally induced asthma (ovalbumin sensitization and aerosol challenge); type: in vivo, mice; details: treatment 1 h before aerosol challenge, 24 h and 48 h afterwards; lavage at 72 h
Experimental: Mice were sensitized on Days 0, 7, and 14 with 10 μg ovalbumin in 1% aluminum hydroxide. On Day 21, the mice were challenged with the allergen in aerosol form (5% wt/vol in saline). Treatment with MP8 or control was administered 1 h before the aerosol challenge, and 24 h and 48 h afterwards. On Day 24 (72 h after the challenge), lungs were ravaged under anesthesia with 2×0.5 mL buffer to recover cells in the alveolar fluid.

[2] = tested on: collagen-induced arthritis; assay: Collagen-induced arthritis, treatment from 3 days before collagen; type: in vivo, DBA/1 LacJ mice
Experimental: Collagen-induced arthritis is a standard model for evaluating potential therapeutic agents for rheumatoid arthritis (Courtenay et al., Nature 283:666, 1980; Williams et al., Proc Natl Acad Sci USA 89:9784, 1992; Gerlag et al., J Immunol 165:1652, 2000). Arthritis was induced in 7-9 week old female DBA/1 LacJ mice by immunization with collagen. On day 0, the mice were injected at the base of the tail with 100 μg bovine type II collagen in complete Freund's adjuvant. On day 7, mice were boosted with an intraperitoneal injection of 100 μg collagen. To enhance and synchronize synovitis, the mice were injected subcutaneously on day 14 with 100 μg of lipopolysaccharide (LPS). Joint swelling was monitored in a blinded fashion by measuring the diameter in all 4 paws and both ankles using a constant pressure gauge. Arthritis Index was also determined on the following scale, and summed for all extremities. 0≡normal; 1≡one digit swollen; 2≡more than one digit swollen; 3≡joint distortion; 4≡ankylosis. The arthritis experiments were conducted under contract by Calvert Preclinical Services, Inc., Olyphant Pa.
As is typical in this model, not all animals respond to the collagen challenge.

B1: MP8: polypeptide having the sequence of SEQ. ID NO:41 (usually with a HIS tag); cytokine receptor releasing protein expressed in E. coli (protein, listed as Homo sapiens)
chain: WIQRIRHEGNSTVYEWRTGTEPSVVERPHLEELPEQVAEDAIDWGDFGVEAVSEGTDSGISAEAAGIDWGIFPESDSKDPGGDGIDWGDDAVALQITVLEAGTQAPEGVARGPDALTLLEYTETRNQFLDELMELEIFLAQRAVELSEEADVLSVSQFQLAPAILQGQTKEKMVTMVSVLEDLIGKLTSLQLQHLFMILASPRYVDRVTEFLQQKLKQSQLLALKKELMVQKQQEALEEQAALEPKLDLLLEKTKELQKLIEADISKRYSGRPVNLMGTSL
modifications: HIS tag
notes: ID NO:41 (usually with a HIS tag); cytokine receptor releasing protein expressed in E. coli
proportion of eosinophils [1]: substantially reduced
white blood cells migrating into the alveolar fluid [1]: reduced the number of the white blood cells migrating into the alveolar fluid
effectiveness compared with Enbrel ([2]; 300,000 FU daily): at least as effective as a scaled dose of Enbrel®
animals affected by arthritis ([2]; 300,000 FU daily starting 3 days before first collagen injection, 8 out of 9 controls affected): none of the animals treated with MP8 were affected
joint swelling and arthritis index ([2]; 300,000 FU daily, prophylactic): prevented the animals from showing any measurable signs of the disease
